Experimental data reported in patent US20100239570A1 (published 2010).
Where no end group is shown, it is not given here.

T1: Abeta17-28 (UniProt P05067 688-699)
T1 construct: range 17-28; Range is counted on the Abeta peptide
T1 peptide (looked up): LVFFAEDVGSNK

T2: Abeta1-11 (UniProt P05067 672-682)
T2 construct: range 1-11; Range is counted on the Abeta peptide
T2 peptide (looked up): DAEFRHDSGYE

T3: peptide consisting of amino acids 22-35 of Abeta (UniProt P05067 693-706)
T3 construct: range 22-35; Range is counted on the Abeta peptide; also called Abeta22-35
T3 peptide (looked up): EDVGSNKGAIIGLM

B1: Abeta29-40 fragment (peptide)
peptide: GAIIGLMVGGVV
modifications: not fully specified
B2: antibody NI-103 (antibody, V domains shown)
VH: EVQLHQSGPELVKPGASVKISCKTSGYTFTEYTMHWVKQSHGKSLEWIGGVNPYNDNTSYIRKLQGKVTLTVDRSSSTAYMELRSLTSEDSAVYFCARYGGLRPYYFPMDFWGQGTSVTVSS
VL: QVVLSQSPAILSASPGERVTLTCRASSSVNYMHWYQQKPGSSPKAWIYATSNLASGVPDRFSASGSGTSYSLTISRVEAEDAATYYCQQWRTNPPTFGAGTKLELKR
notes: detected in ELISA with anti-mouse IgG; treated as the same molecule

How the values were obtained:
antibody NI-103 = target: B2; assay: competition ELISA, peptide at 1 µM in solution against coated Abeta1-42
Method: (§1) 96 well half area Microplates (Corning) were coated with synthetic Abeta-peptide preparations at a standard concentration of 1 μg/ml in coating buffer (15 mM Na₂CO₃, 35 mM NaHCO₃, pH 9.42) overnight at 4° C. Plates were washed and non-specific binding sites were blocked for 1 h at RT with PBS containing 2% BSA (Sigma, Buchs, Switzerland).

[1] = target: T4, human wild type APP fused at the intracellular C-terminus to the yellow fluorescent protein variant Citrine, … (human, UniProt P05067 18-770); assay: immunofluorescence on live HEK 293 cells expressing human APP-Citrine, 30 min at 4 C
T4 construct: whole, on cells; also called cellular full-length APP; cell-surface APP; not shown: yellow fluorescent protein variant Citrine at the intracellular C-terminus
Method: HEK 293 cells were transiently transfected with a vector that expresses human wild type APP fused at the intracellular C-terminus to the yellow fluorescent protein variant Citrine. 24 hours after transfection the cells were incubated with human recombinant antibodies or control antibodies at 4° C. for 30 minutes. After a washing step the cell were fixed and surface-bound antibody was detected using Cy-3-labeled secondary antibodies to human or mouse IgG (Jackson ImmunoResearch). Analysis of fluorescence was performed on a confocal microscope (Leica).
Citrin-positive signals indicate APP-expressing cells.

Abeta29-40 fragment = target: B1; assay: ELISA, peptide coated at 1 ug/ml
Method: as §1

Abeta1-28 = target: T5, Abeta1-28 (UniProt P05067 672-699); assay: ELISA, peptide coated at 1 ug/ml
T5 construct: range 1-28; Range is counted on the Abeta peptide
Method: as §1

Abeta17-28 = target: T1, Abeta17-28; assay: ELISA, peptide coated at 1 ug/ml
Method: as §1

Abeta1-11 = target: T2, Abeta1-11; assay: ELISA, peptide coated at 1 ug/ml
Method: as §1

Abeta1-38 = target: T6, Abeta1-38 (UniProt P05067 672-709); assay: ELISA, peptide coated at 1 ug/ml
T6 construct: range 1-38; Range is counted on the Abeta peptide; also called Abeta fragment consisting of amino acids 1-38
Method: as §1

[2] = target: T3, peptide consisting of amino acids 22-35 …; assay: ELISA, peptide coated at 1 ug/ml
Method: as §1

Row | Binder | binding result (antibody NI-103) | binding result [1] | binding result (Abeta29-40 fragment) | binding result (Abeta1-28) | binding result (Abeta17-28) | binding result (Abeta1-11) | binding result (Abeta1-38) | binding result [2]
1 | B1 | binds |  |  |  |  |  |  | 
2 | B2 |  | no binding | binds | no binding | no binding | no binding | no binding | no binding
